Publication PMC5372742, “Protection of the Queuosine Biosynthesis Enzyme QueF from Irreversible Oxidation by a Conserved Intramolecular Disulfide” (Biomolecules, 2017)

Substrate: N#Cc1c[nH]c2nc(N)[nH]c(=O)c12
Assay: steady-state kinetics, fluorescence assay of product NADP+
Assay type: biochemical, Bacillus subtilis
Details: co-substrate NADPH

B1: B. subtilis QueF (Bacillus subtilis subsp. subtilis str. 168; E98Q) (protein)
chain: MTTRKESELEGVTLLGNQGTNYLFEYAPDVLESFPNKHVNRDYFVKFNCPEFTSLCPKTGQPDFATIYISYIPDEKMVESKSLKLYLFSFRNHGDFHQDCMNIIMNDLIELMDPRYIEVWGKFTPRGGISIDPYTNYGKPGTKYEKMAEYRMMNHDLYPETIDNR
notes: queF gene in pET-30Xa, expressed in E. coli BL21(DE3); ~160 amino acids, single T-fold domain, homodecamer; active sites at intersubunit interfaces
  Km: 67 µM
  kcat: 0.036 min⁻¹
